B1: purified recombinant human caspase-3 (protein)
chain: SGISLDNSYKMDYPEMGLCIIINNKNFHKSTGMTSRSGTDVDAANLRETFRNLKYEVRNKNDLTREEIVELMRDVSKEDHSKRSSFVCVLLSHGEEGIIFGTNGPVDLKKITNFFRGDRCRSLTGKPKLFIIQACRGTELDCGIETDSGVDDDMACHKIPVEADFLYAYSTAPGYYSWRNSKDGSWFIQSLCAMLKQYADKLEFMHILTRVNRKVATEFESFSFDATFHAKKQIPCIVSMLTKELYFYH

Experiments:
[1] = target: full length αII-spectrin, rat (UniProt P16086)
[2] = target: full length αII-spectrin, rat, P16086

Molecule | αII-spectrin fragmentation patterns (Western blot after in vitro digestion of rat brain cortex lysate) [1] | αII-spectrin fragmentation patterns (Western blot after in vitro digestion of rat brain cortex lysate) [2]
purified porcine calpain-2 | calpain-produced SBDP150 | –
B1 | – | Caspase-3-produced SBP150i

Reference: US20070003982
